According to article PMC6879610 (2019):
Substitutions are numbered along the chain they refer to.

Tests used:
MPER peptide PDT-081 [1] = biological target: T1, MPER peptide PDT-081 (HIV-1, biotin at the C-terminus); assay: ELISA
T1 chain: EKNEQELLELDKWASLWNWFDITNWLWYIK

MPER peptide PDT-081 [2] = biological target: T1, MPER peptide PDT-081; assay: BLI

B1: PGZL1.H4K3 IgG (antibody, V domains shown)
VH: KVQLVQSGAELKKPWSSVRVSCKASGGSFSSYAFNWVRQAPGQRLEWLGGIVPLVSSTNYAQRFRGRVTISADRSTSTVYLEMTGLTSADTAVYFCAREGEGWFGRPLRAFEFWGQGTLVTVST
VL: EIVLTQSPGTFALSPGERATLSCRASQSVSGGALAWYQQKAGQAPRLLIYGTSGRATGVPGRFSGSGSETDFSLTISRLEPEDFAVYYCQQYGTSQSTFGQGTRLETR
Work on B1 yielded an EC50 (MPER peptide PDT-081 [1]) of 0.039 µg/mL.

B2: H4K3_SFS28EPE Fab (Fab, V domains shown)
VH: B1 VH with S28E, F29P, S30E
VL: B1 VL with G51D
B2 was tested, and the koff (MPER peptide PDT-081 [2]) was 0.00054 s⁻¹.

B3: H4K3_RS73PE Fab (Fab, V domains shown)
VH: B1 VH with R74P, S75E
VL: B1 VL with G51D
B3 was tested, and the koff (MPER peptide PDT-081 [2]) was 0.00051 s⁻¹.

B4: H4K3_5M Fab (Fab, V domains shown)
VH: B1 VH with S28E, F29P, S30E, R74P, S75E
VL: B1 VL with G51D
B4 gave a koff (MPER peptide PDT-081 [2]) of 0.00067 s⁻¹.

B5: H4K3_SFS28EPE IgG (antibody, V domains shown)
VH: B1 VH with S28E, F29P, S30E
VL: B1 VL with G51D
B5 showed an EC50 (MPER peptide PDT-081 [1]) of 0.076 µg/mL.

B6: H4K3_RS73PE IgG (antibody, V domains shown)
VH: B1 VH with R74P, S75E
VL: B1 VL with G51D
In the case of B6, the EC50 (MPER peptide PDT-081 [1]) is reported as 0.09 µg/mL.

B7: H4K3_5M IgG (antibody, V domains shown)
VH: B1 VH with S28E, F29P, S30E, R74P, S75E
VL: B1 VL with G51D
Work on B7 yielded an EC50 (MPER peptide PDT-081 [1]) of 0.083 µg/mL.
